As usually defined, the Kd is the free concentration of one partner at which half of the binding sites on the other are occupied at equilibrium, for simple one-to-one binding. High values mean weaker binding, low ones tighter binding. A word on the EC50 (read off the curve): it is the concentration needed to bring the measured effect to its halfway point. Higher therefore signals lower potency in that assay.

Changes are numbered by the printed parent chain. Numbers in names are those of the source.

These results are taken from patent US20240277845A1 (XYPHOS BIOSCIENCES, published 2024).

First the molecules themselves.
B1: Rituximab antibody (ADCC-deficient) (antibody, V domains shown)
VH: QVQLQQPGAELVKPGASVKMSCKASGYTFTSYNMHWVKQTPGRGLEWIGAIYPGNGDTSYNQKFKGKATLTADKSSSTAYMQLSSLTSEDSAVYYCARSTYYGGDWYFNVWGAGTTVTVSA
VL: QIVLSQSPAILSASPGEKVTMTCRASSSVSYIHWFQQKPGSSPKPWIYATSNLASGVPVRFSGSGSGTSYSLTISRVEAEDAATYYCQQWTSNPPTFGGGTKLEIK
notes: also called parent rituximab antibody; Rit.P; not shown: human IgG1 heavy-chain constant region, ADCC-deficient
B2: His-tagged monomeric U2S3 (ligand)
chain: EPHSLSYDITVIPKFRPGPRWCAVQGQVDEKTFLHYDCGNKTVTPVSPLGKKLNVTTAWKAQNPVLREVVDILTEQLWDIQLENYTPKEPLTLQARMSCEQKAEGHSSGSWQFSFDGQIFLLFDSEKRMWTTVHPGARKMKEKWENDKVVATKLYLWSMGDCIGWLEDFLMGMDSTLEPHHHHHH
notes: also called orthogonal U2S3 ligand
B3: Fc-iNKG2D.YA (Fc fusion, human, not shown: a dimerising Fc or GST)
chain: IEGRFLNSLFNQEVQIPLTESYCGPCPKNWICYKNNCYQFFDESKNWYESQASCMSQNASLLKVYSKEDQDLLKLVKSAHWMGLVHIPTNGSWQWEDGSILSPNLLTIIEMQKGDCALYASSFKGYIENCSTPNTYICMQRTV
notes: range 78-216; also called Y152A mutant
B4: Rituximab.LC-U2S3 MicAbody (bispecific antibody, human IgG1, kappa, N297A)
heavy: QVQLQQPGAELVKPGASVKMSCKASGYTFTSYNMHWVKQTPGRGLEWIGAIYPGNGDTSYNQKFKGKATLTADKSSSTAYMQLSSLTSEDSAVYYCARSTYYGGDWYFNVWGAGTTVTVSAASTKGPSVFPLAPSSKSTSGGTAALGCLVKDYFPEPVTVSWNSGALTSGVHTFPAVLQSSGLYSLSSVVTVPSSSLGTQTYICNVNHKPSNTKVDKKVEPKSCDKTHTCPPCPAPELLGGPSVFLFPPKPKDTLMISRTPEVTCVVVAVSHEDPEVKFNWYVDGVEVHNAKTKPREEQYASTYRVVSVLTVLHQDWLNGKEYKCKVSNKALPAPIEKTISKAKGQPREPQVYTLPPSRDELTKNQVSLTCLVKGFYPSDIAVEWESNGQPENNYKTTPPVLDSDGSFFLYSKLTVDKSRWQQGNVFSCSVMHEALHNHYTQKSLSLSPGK
light: QIVLSQSPAILSASPGEKVTMTCRASSSVSYIHWFQQKPGSSPKPWIYATSNLASGVPVRFSGSGSGTSYSLTISRVEAEDAATYYCQQWTSNPPTFGGGTKLEIKRTVAAPSVFIFPPSDEQLKSGTASVVCLLNNFYPREAKVQWKVDNALQSGNSQESVTEQDSKDSTYSLSSTLTLSKADYEKHKVYACEVTHQGLSSPVTKSFNRGECAPTSSSGGGGSEPHSLSYDITVIPKFRPGPRWCAVQGQVDEKTFLHYDCGNKTVTPVSPLGKKLNVTTAWKAQNPVLREVVDILTEQLWDIQLENYTPKEPLTLQARMSCEQKAEGHSSGSWQFSFDGQIFLLFDSEKRMWTTVHPGARKMKEKWENDKVVATKLYLWSMGDCIGWLEDFLMGMDSTLEPS
notes: also called Rit-S3; Rit.S3
B5: Rituximab light-chain fusion of U2S3 (NQ) (bispecific antibody)
heavy: QVQLQQPGAELVKPGASVKMSCKASGYTFTSYNMHWVKQTPGRGLEWIGAIYPGNGDTSYNQKFKGKATLTADKSSSTAYMQLSSLTSEDSAVYYCARSTYYGGDWYFNVWGAGTTVTVSAA
light: B4 light with N264Q, N278Q
notes: also called Rit.NQ; Rit.S3.NQ; not shown: human IgG1 heavy-chain constant region, ADCC-deficient

Assay [1] addresses T1, Fc-wtNKG2D (human, UniProt P26718 78-216).
T1 construct: range 78-216; NKG2D ectodomain fused to the C-terminus of human IgG1 Fc; dimeric secreted protein; biotinylated in some ELISAs; also called wild-type NKG2D; Fc-NKG2D
T1 sequence: B3 chain with A79Y
The assay is described as follows: Octet BLI; Fc-wtNKG2D captured on AHC tips, two-fold dilution series from 50 nM. On the procedure:
(§1) YA were captured with anti-human IgG Fc capture (AHC) biosensor tips then associated with a two-fold dilution series of MicAbody starting at 50 nM. The y-axes corresponding to binding responses were set to the same scale for all sensograms.
(In general: BLI is a label-free optical method that tracks binding on a fibre tip over time.)

Assay [2] has as its target B3. Description: Octet BLI; Fc-iNKG2D.YA captured on AHC tips, two-fold dilution series from 50 nM. Here is the method: as §1
Assay [3] addresses B3. The assay is described as follows: Octet BLI, Fc-iNKG2D.YA on AHC tips, His-tagged monomer (FIG. 4C).
In assay [4] the target is T1, Fc-wtNKG2D. The assay is described as follows: Octet BLI; Fc-wtNKG2D captured on AHC tips, dilution series of His-tagged monomeric ligand.
In assay [5] the target is B3. The assay is described as follows: Octet BLI; Fc-iNKG2D.YA captured on AHC tips, dilution series of His-tagged monomeric ligand.
In a further assay the target is T2, MICA-Fc (UniProt Q29983 24-308).
T2 construct: Bought reagent; also called Ligand-Fc fusion (R&D Systems); not shown: Fc of the bought fusion, not described
T2 sequence (Q29983 24-308 limits assumed): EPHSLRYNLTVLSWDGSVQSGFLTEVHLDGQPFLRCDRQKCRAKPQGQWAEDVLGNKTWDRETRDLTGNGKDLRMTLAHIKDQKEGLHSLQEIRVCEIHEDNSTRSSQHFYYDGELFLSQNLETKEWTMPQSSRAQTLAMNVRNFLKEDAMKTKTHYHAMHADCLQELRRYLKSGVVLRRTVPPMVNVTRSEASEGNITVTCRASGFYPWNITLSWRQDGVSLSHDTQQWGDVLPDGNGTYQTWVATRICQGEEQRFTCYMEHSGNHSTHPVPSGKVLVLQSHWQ
Description: ELISA; ligand-Fc coated, biotinylated Fc-iNKG2D.YA titrated, streptavidin-HRP; x axis printed as 'nM ligand-Fc'. On the technique in general: ELISA stands for enzyme-linked immunosorbent assay.

In the next assay the target is T3, MICB-Fc (UniProt Q29980 23-298, limits assumed).
T3 construct: Bought reagent; also called Ligand-Fc fusion (R&D Systems); not shown: Fc of the bought fusion, not described
T3 sequence (looked up): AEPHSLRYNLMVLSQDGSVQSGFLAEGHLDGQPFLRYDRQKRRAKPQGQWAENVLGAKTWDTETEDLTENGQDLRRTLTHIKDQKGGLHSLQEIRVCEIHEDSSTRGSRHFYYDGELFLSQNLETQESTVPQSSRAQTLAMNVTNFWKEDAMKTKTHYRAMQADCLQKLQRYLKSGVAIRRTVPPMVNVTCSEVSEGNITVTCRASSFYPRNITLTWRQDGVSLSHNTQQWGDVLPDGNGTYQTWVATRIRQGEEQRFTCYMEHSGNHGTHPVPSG
The assay is described as above.

In the next assay the target is T4, ULBP1-Fc (UniProt Q9BZM6 26-216).
T4 construct: Bought reagent; also called Ligand-Fc fusion (R&D Systems); not shown: Fc of the bought fusion, not described
T4 sequence (looked up): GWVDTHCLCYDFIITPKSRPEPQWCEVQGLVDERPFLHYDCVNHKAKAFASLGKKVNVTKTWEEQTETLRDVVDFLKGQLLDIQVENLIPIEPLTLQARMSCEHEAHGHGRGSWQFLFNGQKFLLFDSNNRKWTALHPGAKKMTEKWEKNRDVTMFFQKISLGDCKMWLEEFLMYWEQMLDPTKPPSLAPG
Described as above.

The target of a further assay is T5, ULBP2-Fc (UniProt Q9BZM5 26-217).
T5 construct: Bought reagent; also called Ligand-Fc fusion (R&D Systems); not shown: Fc of the bought fusion, not described
T5 sequence (looked up): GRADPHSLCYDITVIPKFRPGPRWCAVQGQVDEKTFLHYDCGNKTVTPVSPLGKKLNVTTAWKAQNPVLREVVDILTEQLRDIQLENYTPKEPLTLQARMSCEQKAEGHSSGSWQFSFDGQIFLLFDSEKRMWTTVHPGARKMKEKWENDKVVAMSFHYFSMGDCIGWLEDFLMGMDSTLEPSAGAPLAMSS
The assay is described as above.

The next assay addresses T6, ULBP3-Fc (UniProt Q9BZM4 30-217).
T6 construct: Bought reagent; also called Ligand-Fc fusion (R&D Systems); not shown: Fc of the bought fusion, not described
T6 sequence (looked up): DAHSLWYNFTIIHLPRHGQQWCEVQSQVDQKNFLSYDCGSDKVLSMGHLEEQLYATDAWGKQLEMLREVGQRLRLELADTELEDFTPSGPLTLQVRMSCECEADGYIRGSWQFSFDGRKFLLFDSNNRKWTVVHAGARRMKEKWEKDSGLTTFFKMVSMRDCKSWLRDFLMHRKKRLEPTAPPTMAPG
Described as above.

Another assay addresses T7, ULBP4-Fc (UniProt Q8TD07 31-225, limits assumed).
T7 construct: Bought reagent; also called Ligand-Fc fusion (R&D Systems); not shown: Fc of the bought fusion, not described
T7 sequence (looked up): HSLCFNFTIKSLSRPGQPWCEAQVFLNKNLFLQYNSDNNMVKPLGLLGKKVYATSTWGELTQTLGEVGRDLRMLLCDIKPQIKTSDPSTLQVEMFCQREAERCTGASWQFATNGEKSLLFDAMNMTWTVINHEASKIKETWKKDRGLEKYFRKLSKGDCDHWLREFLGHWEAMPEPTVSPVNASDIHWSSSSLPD
Described as above.

Assay [6] deals with B3. The assay is described as follows: ELISA; wells coated with Fc-iNKG2D.YA, Rituximab.LC-U2S3 titrated.
The target in assay [7] is B3. The assay is described as follows: ELISA; 'iNKG2D.YA capture; CD20(Rit)-MicAb titration; anti-kappa-HRP detection'.
The target in the next assay is T8, mouse NKG2D (mouse, UniProt O54709 94-232, limits assumed).
T8 construct: also called mouse wild-type NKG2D
T8 sequence (looked up): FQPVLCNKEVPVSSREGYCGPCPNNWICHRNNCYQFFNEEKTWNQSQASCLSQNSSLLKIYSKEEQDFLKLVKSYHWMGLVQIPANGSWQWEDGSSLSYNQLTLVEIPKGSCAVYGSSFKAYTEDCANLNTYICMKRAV
Description: ELISA on mouse NKG2D, MicAbody titrated; y axis 'Mouse NKG2D binding' (absorbance).

Assay [8] addresses B3. The assay is described as follows: Octet BLI; Fc-iNKG2D.YA captured on AHC tips, two-fold dilution series of MicAbody from 50 nM. Here is the method: as §1
In assay [9] the target is T1, Fc-wtNKG2D. The assay is described as follows: ELISA on wild-type NKG2D (FIG. 19); ELISA on wild-type NKG2D (FIG. 19), Rituximab light-chain fusion.

As to B1, the binding result in the assay with Fc-wtNKG2D [1] and with Fc-iNKG2D.YA [2] was “no binding (tested: 50 nM)” each time.
Turning to B2, the “fold higher affinity than wild-type ULBP2 to wtNKG2D” value with Fc-iNKG2D.YA [3] came to 10 fold. In addition, the binding result in the assay with Fc-wtNKG2D [4] is “no binding (tested: not printed on the sheet)”. This molecule also yielded a Kd with Fc-iNKG2D.YA [5] of 28000 pM.
Take B3: the binding result in the assay with MICA-Fc, with MICB-Fc, in the assay with ULBP1-Fc, in the assay with ULBP2-Fc, with ULBP3-Fc and in the assay with ULBP4-Fc was “no binding (tested: about 2000 nM)” throughout.
As to B4, the “EC50 (read off the curve)” value in the assay with Fc-iNKG2D.YA [6] is approximately 30 pM; in the assay with Fc-iNKG2D.YA [7], approximately 60 pM; with mouse NKG2D it was approximately 40000 pM. In the assay with Fc-iNKG2D.YA [8], this molecule displayed a Kd of 10 pM.
As for B5, in the assay with Fc-iNKG2D.YA [7], the “EC50 (read off the curve)” value was approximately 40 pM. Further, in the assay with Fc-wtNKG2D [9], the binding result is given as “no binding”.
